Laboratory results reported in article doi:10.1101/2023.10.05.561050 (bioRxiv, 2023).

Key:
Assay in all cases: PIE-FCCS
[1] = biological target: Myr-GCN4-FP (dimer control)
[2] = biological target: Myr-GCN4-EGFRk-FP (multimer control)
[3] = biological target: the molecule itself

Molecule: Myr-GCN4-FP (dimer control)
- fc (median cross-correlation value) [1]: 0.14

Molecule: Myr-GCN4-EGFRk-FP (multimer control)
- fc (median cross-correlation value) [2]: 0.23

B1: Myr-ICD-ΔS (EphA2 intracellular domain without the SAM domain, AA 559-882, with a membrane localization sequence) (domain or fragment)
chain: HRRRKNQRARQSPEDVYFSKSEQLKPLKTYVDPHTYEDPNQAVLKFTTEIHPSCVTRQKVIGAGEFGEVYKGMLKTSSGKKEVPVAIKTLKAGYTEKQRVDFLGEAGIMGQFSHHNIIRLEGVISKYKPMMIITEYMENGALDKFLREKDGEFSVLQLVGMLRGIAAGMKYLANMNYVHRDLAARNILVNSNLVCKVSDFGLSRVLEDDPEATYTTSGGKIPIRWTAPEAISYRKFTSASDVWSFGIVMWEVMTYGERPYWELSNHEVMKAINDGFRLPTPMDCPSAIYQLMMQCWQQERARRPKFADIVSILDKLIRAPDSLK
modifications: N-terminal myristoylation of the c-Src-derived peptide
- stoichiometry N [3]: 2
